Here are results for 83 variants from the RNAGym collection of RNA variant scans (doi:10.1093/molbev/msab373).

B1: Azoarcus group I ribozyme (parent)
chain: GUGCCUUGCGCCGGGAAACCACGCAAGGGAUGGUGUCAAAUUCGGCGAAACCUAAGCGCCCGCCCGGGCGUAUGGCAACGCCGAGCCAAGCUUCGGCGCCUGCGCCGAUGAAGGUGUAGAGACUAGACGGCACCCACCUAAGGCAAACGCUAUGGUGAAGGCAUAGUCCAGGGAGUGGCGAAAGUCACACAAACCGG

Variants of B1 are the subject of this series. The experiment in a line: reverse-splicing fitness (ratio to wild type); higher = more active; in vitro selection; Mg2+ level not given. The procedure, abridged:
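An in vitro group I ribozyme library with randomized positions was T7-transcribed and gel-purified. In triplicate, 10 pmol RNA in EPPS pH 7.5 was reacted with 50 pmoles of a 30-nt RNA substrate for 1 h at 37 °C across several added MgCl2 levels (1–48 mM), then stopped with EDTA. Products were reverse transcribed from a substrate-complementary primer, PCR-amplified and sequenced (HiSeq 4000). Fitness is a variant's read proportion after selection over that before, normalised to wild type.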
For C82U A111G A120G A145U C150U C169A U176C, the reverse-splicing fitness was determined as 0.00928.

Consider C82U A145G C150A C169A U176C, for which the reverse-splicing fitness stood at 0.0216. Next, C82A A111U A120C C150G C169U: 0.0101; C82U A120U A145U C169A U176C: 0.00166; C82A A111C A145C C150U C169G: 0.0076.

Regarding C82U A120G C150A C169G U176A, the reverse-splicing fitness worked out at 0.018.

As to A111U A145G C150G C169G U176C, the reverse-splicing fitness turned out to be 0.0116. For the variant A111C A145C C150G C169U, the reverse-splicing fitness came out at 0.018. Next, A120G C150G C169G U176A: 0.0132.

As to C82A A111G A120C A145G C169A U176G, the reverse-splicing fitness was 0.00562.

For C82U A111G A120G A145U C150U C169G U176C, the reverse-splicing fitness is 0.0132.

Regarding C82U A120G C150A C169G, the reverse-splicing fitness was 0.0102. For the variant C82G A111C A120U A145C C169A U176C, the reverse-splicing fitness stood at 0.00237. Consider C82G A111G A120G U176G, for which the reverse-splicing fitness was determined as 0.00869. Regarding C82A A111U A120U A145U C150A U176G, the reverse-splicing fitness stood at 0.00236. For C82U A111U A120U A145U C150G C169A the value was 0.0034; for C82G A111C A120G C150U C169U U176C, 0.0156; for C82A A111G U176G, 0.0537. Take C82A A111U A120U A145C C150A C169G U176C: the reverse-splicing fitness came to 0.00303. Regarding C82U A111U A120G A145C C150U U176G, the reverse-splicing fitness came out at 0.00412. Next, C82U A111G A120G A145C C150U C169U U176C: 0.0091; C82U A120U A145U C150U U176C: 0.0465. Next, C82A A111G A145C C150A U176A: 0.015. Take C82A A111C A120U A145U C150G C169A U176C: the reverse-splicing fitness worked out at 0.00377. A120U A145G C150U C169A U176A: the reverse-splicing fitness is 0.00538. Turning to C82G A111U A120G A145G C150A C169A, the reverse-splicing fitness was determined as 0.0109. For C82U A145G C150G U176A, the reverse-splicing fitness came to 0.0372. On to C82U A145G C150G U176G, for which the reverse-splicing fitness was found to be 0.0108. As to C82G A111U A120U, the reverse-splicing fitness is 0.0462. For the variant C82G A111U A120G A145C C150G C169A U176C, the reverse-splicing fitness stood at 0.0077.

On to C82U A111C A145G C150U C169G U176A, for which the reverse-splicing fitness amounted to 0.0107. Turning to C82G A111U A120C A145G C150G U176C, the reverse-splicing fitness was found to be 0.0118. Regarding C82A A111G A145G C150U C169U, the reverse-splicing fitness worked out at 0.0135. For A120C A145G U176G, the reverse-splicing fitness stood at 0.212. For C82U A120U A145U C150A the value was 0.0156; for C82A A120G A145C C150G C169U U176G, 0.00438. For C82U A111G A120U A145C C150A U176C the value was 0.00275. For the variant C82A A120U A145G C150G C169G U176G, the reverse-splicing fitness came to 0.00415.

Regarding C82G A111U A145G U176G, the reverse-splicing fitness turned out to be 0.061. For A111U A120G A145U C169U U176A the value was 0.0488.

A111U A120U A145U C150U C169G U176G: the reverse-splicing fitness was 0.00227.

Turning to C82U A111G A120C A145U C150A C169A, the reverse-splicing fitness was 0.00739. Take A120G A145C C150A C169G: the reverse-splicing fitness was 0.0475. As to C82A A111U A120U A145C U176G, the reverse-splicing fitness amounted to 0.00274.

C82U A111C A120U C169A U176A: the reverse-splicing fitness stood at 0.00309.

Regarding C82A A120G A145C U176G, the reverse-splicing fitness came to 0.00396. For C82G A111G A120C C169U U176G, the reverse-splicing fitness was 0.00596. C82U A111G A145C C169G U176C: the reverse-splicing fitness was 0.0119. For C82U A145U C150A U176C, the reverse-splicing fitness was 0.0543. Take A145U C150U C169U: the reverse-splicing fitness was 0.312. Next, C82A A120G A145C C169U: 0.0141; A111G A120G C150A C169G U176C: 0.0343. Turning to A111G A120U C150U C169U U176A, the reverse-splicing fitness stood at 0.016. C82U A120C A145U C150G U176G: the reverse-splicing fitness worked out at 0.0036. Regarding A111U A145G U176C, the reverse-splicing fitness worked out at 0.721. As for C82U A120C A145C C169U U176G, the reverse-splicing fitness worked out at 0.00368. With C82U A111C A145C C150A C169U, the reverse-splicing fitness is 0.00887. For C82A A111U A120C A145G C150U C169G the value was 0.00957; for A111C A120G A145U C150U C169G U176C, 0.0326; for C82U A111C A120G C150G C169G U176A, 0.00584. C82A A120C A145C C150A U176A: the reverse-splicing fitness stood at 0.0107.

On to A111U A145G C150A C169G U176A, for which the reverse-splicing fitness was found to be 0.0163. As to C82A A120G C150U C169G U176G, the reverse-splicing fitness is 0.00468. For C82A A111G A120C A145C C150G C169U U176A, the reverse-splicing fitness came out at 0.00566. Next, C82G A111C A120G C150U C169G U176G: 0.00537.

Regarding C82U A120C A145G C150A C169G U176C, the reverse-splicing fitness is 0.0219. On to A111G A120U C169G, for which the reverse-splicing fitness turned out to be 0.103. As to C82G A111U A120C U176A, the reverse-splicing fitness came to 0.0172. Turning to C82G A111G A120U A145G C150U C169U, the reverse-splicing fitness came out at 0.00611. Take C82U A111U A120C A145U C150U C169U U176A: the reverse-splicing fitness is 0.0145. For C82A A111G A120G A145C C169A U176A the value was 0.0117; for C82U A111U A120G A145U C150U C169A U176G, 0.00462.

For the variant C82U A111C A120G A145G C150U C169G U176G, the reverse-splicing fitness came to 0.00467. For C82G A111G A145U C150G C169G U176G the value was 0.00579; for A111C A120G A145U C169A, 0.128; for C82A A111U A120G C150G C169U U176C, 0.0145.

For the variant C82A A111G A145C C150A C169A, the reverse-splicing fitness was determined as 0.00955. Take C82A A111G A145C C150A C169U: the reverse-splicing fitness worked out at 0.0104.

Regarding C82G A111G A120G A145C C150G U176A, the reverse-splicing fitness came to 0.0082. Turning to A120G A145C C150A U176A, the reverse-splicing fitness amounted to 0.027. C82U A111U A120G A145C C150A C169G U176A: the reverse-splicing fitness came to 0.0242. Consider C82A A111G A120G C150A C169U, for which the reverse-splicing fitness worked out at 0.00823. Turning to A145U C150A C169A U176A, the reverse-splicing fitness was 0.014.
